Where two headings read alike, the source gives them in different places. Numbered stars: 1 amine (or outer) side, 2 acyl side, 3 side chain; on linkers, the order of the positions; unused ones are H or OH. Bridge positions count the residues as written; N and C are the ends. Square brackets hold non-standard residues; d marks the D form. * marks the point of attachment. Ser(Bzl) = O-benzyl-serine, O=C([C@H](COCc1ccccc1)N[*:1])[*:2]; Nle = CCCC[C@H](N)C(=O)O; Orn = NCCC[C@H](N)C(=O)O; Dab = NCC[C@H](N)C(=O)O; Bn = c1ccc(C*)cc1
What was measured:
[1] = biological target: T1, human melanocortin-4 receptor (recombinant hMC4-R) (human, UniProt P32245 1-332); assay: cell-based or functional assay
T1 sequence (P32245 whole entry): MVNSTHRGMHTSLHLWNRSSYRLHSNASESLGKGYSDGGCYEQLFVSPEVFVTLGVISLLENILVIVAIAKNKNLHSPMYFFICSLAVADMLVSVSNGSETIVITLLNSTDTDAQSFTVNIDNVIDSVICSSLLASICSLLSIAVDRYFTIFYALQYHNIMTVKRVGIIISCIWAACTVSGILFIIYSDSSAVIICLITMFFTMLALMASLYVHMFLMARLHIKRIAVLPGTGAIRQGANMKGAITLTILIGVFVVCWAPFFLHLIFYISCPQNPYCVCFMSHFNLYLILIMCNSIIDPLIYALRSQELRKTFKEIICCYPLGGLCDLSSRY

[2] = biological target: T1, human melanocortin-4 receptor …; assay: competition with labelled NDP-α-MSH ([I125] or Eu), hMC4-R HEK-293 membranes
Description: (§1) After incubation for 60 minutes at 37° C., the assay mixture was filtered and the membranes washed three times with ice-cold buffer. Filters were dried and counted in a gamma counter for bound radioactivity. […] Maximal specific binding (100%) was defined as the difference in radioactivity (cpm) bound to cell membranes in the absence and presence of 1 μM NDP-α-MSH. […] Ki values for test peptides of the present invention were determined using Graph-Pad Prism® curve-fitting software.
(§2) After incubation for 90 minutes at 37° C., the reaction was stopped by filtration over AcroWell 96-well filter plates (Pall Life Sciences). The filter plates were washed 4 times with 200 μL of ice-cold phosphate-buffered saline. DELFIA Enhancement solution (PerkinElmer Life Sciences) was added to each well. The plates were incubated on a shaker for 15 minutes and read at 340 nm excitation and 615 nm emission wavelengths. Each assay was conducted in duplicate and mean values were utilized. Ki values were determined by curve-fitting with Graph-Pad Prism® software using a one-site fixed-slope competition binding model.

[3] = biological target: T1, human melanocortin-4 receptor …; assay: cell-based or functional assay; remark: listed apart in the source
[4] = biological target: T1, human melanocortin-4 receptor …; assay: competition with labelled NDP-α-MSH ([I125] or Eu), hMC4-R HEK-293 membranes; remark: listed apart in the source
Description: as §1, §2

Binder | Ec50 (nM), cAMP [1] | Emax (%), cAMP [1] | Ki [2] | Ec50 (nM), cAMP [3] | Emax (%), cAMP [3] | Ki [4]
Ac-KDH[dF]RWK-NH2 (lactam 2-7; SMILES CC(=O)N[C@@H](CCCCN)C(=O)N[C@H]1CC(=O)NCCCC[C@@H](C(N)=O)NC(=O)[C@H](Cc2c[nH]c3ccccc23)NC(=O)[C@H](CCCNC(=N)N)NC(=O)[C@@H](Cc2ccccc2)NC(=O)[C@H](Cc2c[nH]cn2)NC1=O, also called Peptide Structure (Asp...Lys) in the row of No. 40) [Asp...Lys analog of peptide No. 40: Ac-Lys-cyclo(Asp-His-D-Phe-Arg-Trp-Lys)-NH2] | 5 nM | 85% | 9 nM |  |  | 
Ac-RD[Ser(Bzl)][dF]RWK-OH (lactam 2-7, also called Peptide Structure (Asp...Lys) in the rows of No. 17 and No. 48) [Asp...Lys analog of peptides No. 17 and No. 48: Ac-Arg-cyclo(Asp-Ser(Bzl)-D-Phe-Arg-Trp-Lys)-OH] | 5 nM | 38% | 9 nM | 5 nM | 38% | 9 nM
Ac-[dR]DQ[dF]RWK-NH2 (lactam 2-7, also called Peptide Structure (Asp...Lys) in the row of No. 45) [Asp...Lys analog of peptide No. 45: Ac-D-Arg-cyclo(Asp-Gln-D-Phe-Arg-Trp-Lys)-NH2] |  | 89% | 45 nM |  |  | 
Ac-RDN[dF]RWK-NH2 (lactam 2-7; SMILES CC(=O)N[C@@H](CCCNC(=N)N)C(=O)N[C@H]1CC(=O)NCCCC[C@@H](C(N)=O)NC(=O)[C@H](Cc2c[nH]c3ccccc23)NC(=O)[C@H](CCCNC(=N)N)NC(=O)[C@@H](Cc2ccccc2)NC(=O)[C@H](CC(N)=O)NC1=O, also called Peptide Structure (Asp...Lys) in the rows of No. 34 and No. 46) [Asp...Lys analog of peptides No. 34 and No. 46: Ac-Arg-cyclo(Asp-Asn-D-Phe-Arg-Trp-Lys)-NH2] | 42 nM | 91% | 32 nM | 42 nM | 91% | 32 nM
Ac-RDP[dF]RWK-NH2 (lactam 2-7, also called Peptide Structure (Asp...Lys) in the row of No. 47) [Asp...Lys analog of peptide No. 47: Ac-Arg-cyclo(Asp-Pro-D-Phe-Arg-Trp-Lys)-NH2] | 9 nM | 43% | 17 nM |  |  | 
Ac-RDA[dF]RWK-NH2 (lactam 2-7, also called Peptide Structure (Asp...Lys) in the row of No. 41) [Asp...Lys analog of peptide No. 41: Ac-Arg-cyclo(Asp-Ala-D-Phe-Arg-Trp-Lys)-NH2] | 37 nM | 74% | 19 nM |  |  | 
Ac-R[Orn]H[dF]RWE-OH (lactam 2-7) [Peptide No. 37: Ac-Arg-cyclo(Orn-His-D-Phe-Arg-Trp-Glu)-OH] | 0.6 nM | 88% | 12 nM |  |  | 
Ac-EQ[dF]RW[Orn]-NH2 (lactam 1-6; SMILES CC(=O)N[C@H]1CCC(=O)NCCC[C@@H](C(N)=O)NC(=O)[C@H](Cc2c[nH]c3ccccc23)NC(=O)[C@H](CCCNC(=N)N)NC(=O)[C@@H](Cc2ccccc2)NC(=O)[C@H](CCC(N)=O)NC1=O) [Peptide No. 21: Ac-cyclo(Glu-Gln-D-Phe-Arg-Trp-Orn)-NH2] |  |  |  | 26 nM | 49% | 74 nM

Results, then the binder that gave them:

Ec50 (nM), cAMP [1] | Emax (%), cAMP [1] | Ki [2] | Ec50 (nM), cAMP [3] | Emax (%), cAMP [3] | Ki [4] | Binder
0.1 nM | 103% | 3 nM |  |  |  | Ac-R[Orn][Dab][dF]RWE-NH2 (lactam 2-7) [Peptide No. 43: Ac-Arg-cyclo(Orn-Dab-D-Phe-Arg-Trp-Glu)-NH2]
 | 97% | 1 nM |  |  |  | Ac-[Nle][Orn]H[dF]RWE-OH (lactam 2-7) [Peptide No. 35: Ac-Nle-cyclo(Orn-His-D-Phe-Arg-Trp-Glu)-OH]
6 nM | 54% | 5 nM |  |  |  | Ac-R[Orn]P[dF]RWE-NH2 (lactam 2-7) [Peptide No. 47: Ac-Arg-cyclo(Orn-Pro-D-Phe-Arg-Trp-Glu)-NH2]
3 nM | 50% | 5 nM |  |  |  | Ac-R[Orn]S(Bn)[dF]RWE-OH (lactam 2-7) [Peptide No. 48: Ac-Arg-cyclo(Orn-Ser(Bzl)-D-Phe-Arg-Trp-Glu)-OH]
0.2 nM | 114% | 3 nM |  |  |  | Ac-K[Orn]H[dF]RWE-NH2 (lactam 2-7) [Peptide No. 40: Ac-Lys-cyclo(Orn-His-D-Phe-Arg-Trp-Glu)-NH2]
7 nM | 52% | 19 nM |  |  |  | Ac-R[Orn]A[dF]RWE-NH2 (lactam 2-7; SMILES CC(=O)N[C@@H](CCCNC(=N)N)C(=O)N[C@H]1CCCNC(=O)CC[C@@H](C(N)=O)NC(=O)[C@H](Cc2c[nH]c3ccccc23)NC(=O)[C@H](CCCNC(=N)N)NC(=O)[C@@H](Cc2ccccc2)NC(=O)[C@H](C)NC1=O) [Peptide No. 41: Ac-Arg-cyclo(Orn-Ala-D-Phe-Arg-Trp-Glu)-NH2]
0.2 nM | 85% | 0.2 nM |  |  |  | Ac-[Nle][Orn]H[dF]RWE-NH2 (lactam 2-7) [Peptide No. 36: Ac-Nle-cyclo(Orn-His-D-Phe-Arg-Trp-Glu)-NH2]
0.2 nM | 103% | 4 nM |  |  |  | Ac-[dR][Orn]H[dF]RWE-NH2 (lactam 2-7) [Peptide No. 39: Ac-D-Arg-cyclo(Orn-His-D-Phe-Arg-Trp-Glu)-NH2]
1 nM | 84% | 1 nM |  |  |  | Ac-R[Orn]H[dF]RWE-NH2 (lactam 2-7) [Peptide No. 38: Ac-Arg-cyclo(Orn-His-D-Phe-Arg-Trp-Glu)-NH2]
 |  |  | 3 nM | 90% | 7 nM | Ac-RE[Orn](Ac)[dF]RW[Orn]-NH2 (lactam 2-7) [Peptide No. 33: Ac-Arg-cyclo(Glu-Orn(Acetyl)-D-Phe-Arg-Trp-Orn)-NH2]

From patent US20120077957A1 (PALATIN TECHNOLOGIES, published 2012)
